Results published in patent US6905849B1, “Process for preparing clavam derivatives by using polypeptides having β-lactam synthetase activity” (SmithKline Beecham plc, priority 1998, dated 2005).

Test: Assay for conversion of compound (III) to compound (IV) by protein extracts, HPLC detection
Assay type: biochemical, Streptomyces clavuligerus
Conditions: recombinant orf3 protein from E. coli BL21(DE3)/pBLS3; ATP, Mg(AcO)2, MOPS pH 7.4; 37 °C, 15 minutes; underivatised and benzoin-derivatised HPLC
Procedure: The crude extracts prepared from the recombinant E. coli containing the pBLS3vector (example 5) and the purified protein product (example 6) were tested for the ability to catalyse the conversion of the compound (III) to compound (IV). Both compound (III) and compound (IV) were prepared synthetically following previously published methods (Baldwin et al J. Chem Soc. Chem Comm. 1993 p500-2 and Elson et al J. Chem Soc. Chem Comm. 1993 p1212-4). Protein extracts were assayed for the conversion of compound (III) to compound (IV) under the following conditions: [table] The above mixture was heated at 37 ° C. for 15 minutes before being analysed by the HPLC methods described below. This assay was carried out using the following equipment and conditions • Waters 746 data module • Waters 600E system controller • Waters 712 WISP injector • Waters 848 tunable absorbance detector The protocol used was Kai et al. (M. Kai, T. Miyazaki, M. Yamaguchi, Y Ohkura, J. Chromatog. 268, 417-424, 1983) which assays for compounds containing guanidino functionalities using a fluorescence detector. […]

B1: orf3 product: polypeptide encoded by orf3 of the Streptomyces clavuligerus clavulanic acid gene cluster (SEQ ID NO:2), 56 KDa, β-lactam synthetase (protein, listed as Streptomyces clavuligerus)
chain: GAPVLPAAFGFLASARTGGGRAPGPVFATRGSHTDIDTPQGERSLAATLVHAPSVAPDRAVARSLTGAPTTAVLAGEIYNRDELLSVLPAGPAPEGDAELVLRLLERYDLHAFRLVNGRFATVVRTGDRVLLATDHAGSVPLYTCVAPGEVRASTEAKALAAHRDPKGFPLADARRVAGLTGVYQVPAGAVMDIDLGSGTAVTHRTWTPGLSRRILPEGEAVAAVRAALEKAVAQRVTPGDTPLVVLSGGIDSSGVAACAHRAAGELDTVSMGTDTSNEFREARAVVDHLRTRHREITIPTTELLAQLPYAVWASESVDPDIIEYLLPLTALYRALDGPERRILTGYGADIPLGGMHREDRLPALDTVLAHDMATFDGLNEMSPVLSTLAGHWTTHPYWDREVLDLLVSLEAGLKRRHGRDKWVLRAAMADALPAETVNRPKLGVHEGSGTTSSFSRLLLDHGVAEDRVHEAKRQVVRELFDLTVGGGRHPSEVDTDDVVRSVADRTARGAA
β-lactam synthetase activity: conversion of compound (III) to compound (IV): catalysis the conversion of compound (III) to compound (IV)
